Source: publication PMC3320602

Target: HIV-1 JR-FL envelope glycoprotein (gp120 and gp41) on GFP-labelled Env-pseudotyped particles (HIV-1 isolate JR-FL)

“tetrameric CD4-IgG2 molecule (PRO 542) (from UniProt P01730 26-396; P01730 26-396) (Fc fusion)” gave an IC50 of inhibition of JR-FL infection of TZM-bl cells (luciferase), cell-cell transmission from infected PBMC against cell-free virus; the pair blocked is m1+m3 of 40 fold.
